For one protein, Km and Vmax results are on record in US6461841B2, “L-amino acid oxidase from Rhodococcus species” (Degussa AG, priority 2000, dated 2002).

Several values for one entry are separate records, joined by “and”; a condition that tells them apart may be missing. Equal values may be shown once.

What all share (assay): purified protein, by the assay type
Common to all, as to details: other: 0.2 M TEA-HCl buffer, pH 7.6, 30° C.

Substrate in data set [1]: CC[C@H](C)[C@H](N)C(=O)O
Substrate in data set [2]: CC(C)C[C@H](N)C(=O)O
Substrate in data set [3]: NC(=O)CC[C@H](N)C(=O)O
Substrate in data set [4]: NCCC[C@H](N)C(=O)O
Substrate in data set [5]: CC(C)[C@H](N)C(=O)O
Substrate in data set [6]: NCCCC[C@H](N)C(=O)O
Type of data set: biochemical. As to the method: (§1) To determine the kinetic constants, the reaction speed of oxidation was studied at different concentrations of amino acid and for different L-amino acids, under the following conditions (tests in microtiter plates):
(§2) 0.2 M TEA-HCl buffer, pH 7.6; 0.2 mg/mL o-dianisidine; 25 U/mL POX; L-amino acid oxidase in limiting amounts; varying concentrations of the different L-amino acids. Activity measurement was conducted by photometry at 450 nm and 30° C.
(§3) The kinetic constants Vmax.

Substrate in data set [7]: N=C(N)NCCC[C@H](N)C(=O)O
In kind it is biochemical. As to the method:
as §1, §2, §3

Substrate in data set [8]: NC(=O)NCCC[C@H](N)C(=O)O
In kind it is biochemical. The protocol: as §1, §2, §3

Substrate in data set [9]: N[C@@H](Cc1ccccc1)C(=O)O
Type of data set: biochemical. As to the method:
as §1, §2, §3

Substrate in data set [10]: CSCC[C@H](N)C(=O)O
Type of data set: biochemical. The protocol: as §1, §2, §3

Substrate in data set [11]: C[C@H](N)C(=O)O
Type of data set: biochemical. As to the method: as §1, §2, §3

Substrate in data set [12]: N[C@@H](CO)C(=O)O
In kind it is biochemical. As to the method: as §1, §2, §3

Substrate in data set [13]: NC(=O)C[C@H](N)C(=O)O
In kind it is biochemical. The protocol:
as §1, §2, §3

B1: L-amino acid oxidase from Rhodococcus opacus (Rhodococcus opacus) (protein)
chain: AGDLIGKVKGSHSVVVLGGGPAGLCSAFELQKAGYKVTVLEARTRPGGRVWTARGGSEETDLSGETQKCTFSEGHFYNVGATRIPQSHITLDYCRELGVEIQGFGNQNANTFVNYQSDTSLSGQSVTYRAAKADTFGYMSELLKKATDQGALDQVLSREDKDALSEFLSDFGDLSDDGRYLGSSRRGYDSEPGAGLNFGTEKKPFAMQEVIRSGIGRNFSFDFGYDQAMMMFTPVGGMDRIYYAFQDRIGTDNIVFGAEVTSMKNVSEGVTVEYTAGGSKKSITADYAICTIPPHLVGRLQNNLPGDVLTALKAAKPSSSGKLGIEYSRRWWETEDRIYGGASNTDKDISQIMFPYDHYNSDRGVVVAYYSSGKRQEAFESLTHRQRLAKAIAEGSEIHGEKYTRDISSSFSGSWRRTKYSESAWANWAGSGGSHGGAATPEYEKLLEPVDKIYFAGDHLSNAIAWQHGALTSARDVVTHIHERVAQEA
notes: made in house; host or cells: Rhodococcus opacus DSM 43250, the natural producer; purified from crude cell extract, not recombinant
As to B1, the Km – broadly, the concentration of substrate that gives half-maximal velocity – in [1] worked out at 5110 µM; in [2], 28 µM; in data set [4], 34 µM; in data set [5] it was 3730 µM; in [6] it was 15 µM; in data set [7], 70 µM. In addition, the Km in data set [8] was 26 µM; in [9], 19 µM; in data set [10], 39 µM; in data set [11], 274 µM; in data set [12], 1360 µM; in data set [13] it was 28 µM. The Vmax – broadly, the rate approached at saturating substrate – in data set [1] is 2.84 µmol/min/mg; in [2], 6.45 µmol/min/mg; in data set [3], 5.06 µmol/min/mg and 2.32 µmol/min/mg; in data set [4] it was 7.48 µmol/min/mg; in data set [5] it was 1.93 µmol/min/mg; in [6], 3.56 µmol/min/mg. In addition, the Vmax turned out to be 8.12 µmol/min/mg in data set [7]; 5.47 µmol/min/mg in data set [8]; 5.64 µmol/min/mg in data set [9]; 4.27 µmol/min/mg in data set [11]; 4.36 µmol/min/mg in [12]; 5.37 µmol/min/mg in [13].
